The supplement of paper PMC11908140

B1: library; numbered along this chain (parent)
chain: MRKPRAAVGSGHRKQAASQEGRQKHAKNNSQAKPSACDGLARQPEEVVLQASVSSYHLFRDVAEVTAFRGSLLSWYDQEKRDLPWRRRAEDEMDLDRRAYAVWVSEVMLQQTQVATVINYYTGWMQKWPTLQDLASASLEEVNQLWAGLGYYSRGRRLQEGARKVVEELGGHMPRTAETLQQLLPGVGRYTAGAIASIAFGQATGVVDGNVARVLCRVRAIGADPSSTLVSQQLWGLAQQLVDPARPGDFNQAAMELGATVCTPQRPLCSQCPVESLCRARQRVEQEQLLASGSLSGSPDVEECAPNTGQCHLCLPPSEPWDQTLGVVNFPRKASRKPPREESSATCVLEQPGALGAQILLVQRPNSGLLAGLWEFPSVTWEPSEQLQRKALLQELQRWAGPLPATHLRHLGEVVHTFSHIKLTYQVYGLALEGQTPVTTVPPGARWLTQEEFHTAAVSTAMKKVFRVYQGQQPGTCMGSKRSQVSSPCSRKKPRMGQQVLDNFFRSHISTDAHSLNSAAQ

Variants of: B1
Experiment: 8OG:A repair function score (normalized; synonymous = 0, nonsense = -1) (normalized log-likelihood score); higher = more repair activity (WT-like)
Conditions: with 8OG:A DNA repair reporter (GFP) in HEK-293 MUTYH KO cells
Outline: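 GFP+ (repair) and GFP− bins of viable mCherry+ cells were collected at 72 h from MUTYH knockout HEK-293 cells bearing lentiviral MUTYH cDNA NNN codon-scan libraries in 10 pg/ml doxycycline, co-transfected with an 8OG:A GFP repair reporter and mCherry. Tile amplicons were sequenced, and per-tile Rosace fitness scores were normalized to a repair function score anchored on synonymous and nonsense distributions. Synonymous medians were set to 0 and nonsense to -1, with variants under 300 counts per million at the start removed.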
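Note: cells sorted at 72 h after reporter transfection.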

8OG:A repair function score, by site and new letter:
P317: F -0.125, M 0.112, K -0.197, E -0.0108, I -0.0482, C -0.0347, R 0.0296, G -0.0274, Q -0.121, D -0.029, N 0.0467, S 0.0611, W -0.205, H -0.0747, Y -0.0115, L -0.0676, V 0.0214, A -0.0112, T -0.0225
G326: A -0.264, H -0.203, L -0.422, F -0.812, K -0.179, M -0.634, V -0.514, Q -0.123, P -0.475, R -0.176, C -0.508, D -0.344, E -0.144, S -0.307, I -0.411, Y -0.435, T -0.298, N -0.0169
L325: Y -0.173, P -0.354, V -0.142, H -0.0759, Q -0.141, T -0.113, M -0.0835, F -0.00965, E -0.08, S -0.135, W -0.0969, K -0.0528, A -0.0759, N -0.136, G -0.16, R -0.00254, I -0.054, C -0.0972, D -0.204
L313: R -0.425, M 0.00327, S -0.292, C -0.146, N -0.337, D -0.363, T -0.317, I -0.156, E -0.601, F -0.0503, G -0.386, Q -0.328, A -0.4, P -0.504, K -0.581, Y -0.104, V -0.213, H -0.299, W -0.257
F330: A -0.791, E -0.809, C -0.248, G -0.999, D -1.15
V327: C -0.201, A -0.205, Y -0.526, W -0.425, I -0.257, N -0.696, F -0.513, R -0.583, P -0.051, G -0.53, K -0.459, M -0.375, L -0.388, E -0.178, Q -0.4, S -0.274, D -0.777, H -0.532, T -0.119
V328: R 0.0191, S -0.00939, Q 0.0461, E -0.157, I -0.0358, Y -0.134, G -0.0273, A -0.0621, C 0.0567, N -0.0823, T -0.077, M -0.0227, D -0.227, W -0.0588, L 0.0391, H -0.251, F -0.215, P -0.507, K 0.0221
H312: P -0.0124, R -0.0802, L 0.0443, I 0.0886, W -0.103, M -0.0518, N -0.0171, T -0.112, Y -0.0454, S -0.0172, V 0.078, K 0.0995, Q -0.0663
C314: E -0.317, W -0.679, L -0.616, M -0.46, V -0.631, N -0.553, Y -0.572, I -0.652, A -0.468, D -0.532, F -0.764, R -0.482, G -0.468, S -0.593, K -0.485, T -0.575
Q323: T 0.0271, Y -0.013, A -0.0752, H -0.0776, M -0.0348, W -0.0368, V -0.00203, C -0.0398, E -0.0118, L -0.0798, D 0.0164, I -0.141, F -0.0491, G -0.0264, P -0.0158, K -0.0269, R -0.099, N 0.061, S -0.0829
N329: E -0.365
